Changes are numbered by the printed parent chain.

Assay in all cases: EMSA; EMSA: PBS pH 7.4 (or KH2PO4/10 mM MgCl2 pH 6.0), 3.6 or 5 uM protein, 25 uM nt DNA, 37 C 15 min per strand, 0.8% agarose 1x TBE; cryo-EM: 20 mM KH2PO4 (Results: 10 mM), 10 mM MgCl2 pH 6.0, 37 C; native MS: 100 mM ammonium acetate pH 7, 37 C
Common to all, as to details: protein: recombinant, tags: N-terminal 6His vector tag (20 aa) retained, chain copies: 10
In general terms: In EMSA bound probe runs differently from free probe, usually more slowly.

One series addresses T1, LiRecT Y100A (Listeria innocua CLIP 11262, UniProt Q92FL9 1-271, Y100A).
T1 sequence: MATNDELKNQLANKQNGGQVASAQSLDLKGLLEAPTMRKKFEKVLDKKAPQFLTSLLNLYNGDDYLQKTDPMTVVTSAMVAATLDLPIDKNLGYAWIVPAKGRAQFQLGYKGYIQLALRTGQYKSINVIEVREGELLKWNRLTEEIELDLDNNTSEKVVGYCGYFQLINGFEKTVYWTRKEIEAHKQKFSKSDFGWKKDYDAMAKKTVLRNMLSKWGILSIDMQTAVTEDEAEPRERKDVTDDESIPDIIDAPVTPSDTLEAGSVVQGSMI

In a further series the target is T2, LiRecT K215A/W216A (Listeria innocua CLIP 11262, UniProt Q92FL9 1-271, K215A;W216A).
T2 sequence: T1 sequence with A100Y, K215A, W216A

The target of the next series is T3, LiRecT Q107H (Listeria innocua CLIP 11262, UniProt Q92FL9 1-271, Q107H).
T3 sequence: T1 sequence with A100Y, Q107H

Another series concerns the target T4, LiRecT V98A/Y100A (Listeria innocua CLIP 11262, UniProt Q92FL9 1-271, V98A;Y100A).
T4 sequence: T1 sequence with V98A

Another series has as its target T5, LiRecT K157A (Listeria innocua CLIP 11262, UniProt Q92FL9 1-271, K157A).
T5 sequence: T1 sequence with A100Y, K157A

[1] abbreviates: label: 5'-Cy3;5'-Cy5, 49 bp, 1 nt 5' overhang at each end.

CCATCCGCAAAAATCGAGCTATGCAGGGCGATTCTGCTCTAAGCCATCCG (ssDNA) [Cy5-50mer]: the binding result is “binds” in the series with LiRecT Y100A (label: 5'-Cy5, single strand); “no binding” with LiRecT K215A/W216A (label: 5'-Cy5, single strand); “binds” in the series with LiRecT Q107H (label: 5'-Cy5, single strand); “binds” in the series with LiRecT V98A/Y100A (label: 5'-Cy5, single strand); “binds” with LiRecT K157A (label: 5'-Cy5, single strand).

B1: 50-mer duplex intermediate (sequential addition) (dsDNA)
DNA 1: GCGGATGGCTTAGAGCAGAATCGCCCTGCATAGCTCGATTTTTGCGGATG
DNA 2: CCATCCGCAAAAATCGAGCTATGCAGGGCGATTCTGCTCTAAGCCATCCG
As to B1, the binding result is on record as “binds” with LiRecT Y100A (setting [1]); “no binding” with LiRecT K215A/W216A (setting [1]); “binds” with LiRecT Q107H (setting [1]); “binds” in the series with LiRecT V98A/Y100A (setting [1]); “binds” with LiRecT K157A (setting [1]).
GCGGATGGCTTAGAGCAGAATCGCCCTGCATAGCTCGATTTTTGCGGATG (ssDNA) [Cy3-50mer]: the binding result in the series with LiRecT Y100A (label: 5'-Cy3, single strand) is “binds”; with LiRecT K215A/W216A (label: 5'-Cy3, single strand), “no binding”; with LiRecT Q107H (label: 5'-Cy3, single strand), “binds”; with LiRecT V98A/Y100A (label: 5'-Cy3, single strand), “binds”; with LiRecT K157A (label: 5'-Cy3, single strand), “binds”.
